Where a chain is given by its changes, count along the chain named. Values joined by “and” are separate entries in the source; they are usually repeats but may differ in a detail not shown here. Identical values can stand only once.

The text below walks through data of patent publication US5977435A, “Plant phosphatases” (Performance Plants, Inc., priority 1997, dated 1999).

The target in series [1] is egg yolk storage phosphoprotein, phosvitin (Gallus gallus (Chicken)) (UniProt P02845).
Series [2] deals with P-Tyr phosphatase from Escherichia coli. The note with it: E. coli P-Tyr phosphatase; cited from earlier work.
Series [3] concerns the target T1, potato phosphatase (Solanum tuberosum, UniProt Q6J5M8).
T1 sequence (Q6J5M8 with tags, fused parts or gaps V118I/E238V/S277N/V282G/E319A/A394T/S415A/T416I/D418E/I426Y/H428S/N437A): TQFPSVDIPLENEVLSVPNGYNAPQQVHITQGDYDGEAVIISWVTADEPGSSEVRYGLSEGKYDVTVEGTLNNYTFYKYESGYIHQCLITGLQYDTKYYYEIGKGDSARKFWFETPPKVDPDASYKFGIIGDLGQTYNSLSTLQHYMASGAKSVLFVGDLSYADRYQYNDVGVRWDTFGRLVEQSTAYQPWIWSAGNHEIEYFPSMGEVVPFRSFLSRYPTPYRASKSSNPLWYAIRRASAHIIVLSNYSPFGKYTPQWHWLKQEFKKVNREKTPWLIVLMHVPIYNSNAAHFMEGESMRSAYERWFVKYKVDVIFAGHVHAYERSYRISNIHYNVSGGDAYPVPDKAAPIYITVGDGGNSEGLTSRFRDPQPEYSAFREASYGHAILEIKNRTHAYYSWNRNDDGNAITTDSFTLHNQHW
Kind of series: Phosphatase assay B, substrate specificity. The conditions noted are these: purified potato phosphatase, assay B, pH 5.8, 25° C. Here is the method:
Phosphatase activity was determined using assay B and a wide range of compounds, tested at a total concentration of 5 mM unless otherwise specified.
(§1) Phosphatase (0.05 units) was incubated in 1.5 mL cuvettes with 0.9 mL of 50 mM MES-NaOH (pH 5.8) containing 4 mM MgCl2 and an alternative substrate (5 mM unless otherwise indicated) for 6 min at 25° C. Reactions were terminated by the sequential addition of 0.1 mL reagent A (3 M H2 SO4 containing 20 mM ammonium molybdate) and […] of 1% (v/v) Triton X-100. Samples were incubated at 25° C. for 20 min and the A660 was determined. To calculate activities, a standard curve over the range of […] Pi was constructed for each set of assays. Assays were performed in triplicate and controls were run for background amounts of Pi present at each substrate concentration by adding reagent A before the enzyme.

The target in series [4] is minor 28-kD potato tuber phosphatase isoform. The conditions noted are these: cited from earlier work.
For series [5], the target named is potato tuber phosphatase (PTAP) (potato (Solanum tuberosum L. cv. Chiefton)).
Substrate in series [6]: C=C(OP(=O)(O)O)C(=O)O
The series is described as follows: purified protein, by the assay type. The conditions noted are these: other: apparent Km, purified potato phosphatase, assay B; pH 5.8; 25.0 °C.

Substrate in series [7]: NC(COP(=O)(O)O)C(=O)O
Kind of series: purified protein, by the assay type. The conditions noted are these: other: apparent Km, purified potato phosphatase, assay B; pH 5.8; 25.0 °C.

Substrate in series [8]: N[C@@H](Cc1ccc(OP(=O)(O)O)cc1)C(=O)O
Kind of series: purified protein, by the assay type. The note with it: other: apparent Km, purified potato phosphatase, assay B; pH 5.8; 25.0 °C.
Experimental: (§3) Phosphatase (0.05 units) was incubated in 1.5 mL cuvettes with 0.9 mL of 50 mM MES-NaOH (pH 5.8) containing 4 mM MgCl2 and an alternative substrate (5 mM unless otherwise indicated) for 6 min at 25° C. Reactions were terminated by the sequential addition of 0.1 mL reagent A (3 M H2 SO4 containing 20 mM ammonium molybdate) and 10 ml of 1% (v/v) Triton X-100. Samples were incubated at 25° C. for 20 min and the A660 was determined. To calculate activities, a standard curve over the range of 0.01 to 1.0 mmol Pi was constructed for each set of assays. Assays were performed in triplicate and controls were run for background amounts of Pi present at each substrate concentration by adding reagent A before the enzyme. Hydrolysis was proportional to enzyme concentrations between 0.005 to 0.1 units/mL and remained linear with time for at least 15 min.
(§4) All kinetic parameters are the means of duplicate determinations performed on two separate preparations of the purified enzyme, and are reproducible to within ±10% SE.

Substrate in series [9]: Nc1ncnc2c1ncn2[C@@H]1O[C@H](COP(=O)(O)OP(=O)(O)OP(=O)(O)O)[C@@H](O)[C@H]1O
The series is described as follows: purified protein, by the assay type. The note with it: other: apparent Km, purified potato phosphatase, assay B; pH 5.8; 25.0 °C.
Experimental: as §3, §4

Substrate in series [10]: O=[N+]([O-])c1ccc(OP(=O)(O)O)cc1
The series is described as follows: purified protein, by the assay type. The conditions noted are these: other: apparent Km, purified potato phosphatase, assay B; pH 5.8; 25.0 °C.

The nature of series [11]: Heat-stability of the phosphatase. Type of series: physicochemical. The protocol: The phosphatase was relatively heat-stable, losing 0, 52, and 90% of its original activity when incubated for 4 min at 65, 70 and 75° C., respectively.
Series [12] relates to potato tuber phosphotyrosyl proteins. Kind of series: Dephosphorylation of potato tuber phosphotyrosyl proteins by potato tuber phosphatase. It is filed as biochemical, Solanum tuberosum. The conditions noted are these: + 30 units/mL phosphatase. Here is the method:
A desalted potato tuber extract was incubated at 25° C. in the absence (-) and presence (+) of 30 units/mL purified potato tuber phosphatase. Aliquots were removed at 2 and 19 h and analyzed by immunoblotting using anti-(P-Tyr) IgG (Kamps and Sefton, 1988). The relative P-Tyr content of the 7 antigenic polypeptides was estimated by laser densitometric quantification of the immunoblots as described in the examples. Unless otherwise noted, all values represent the means±SE of triplicate determinations. ^a, the mean of duplicate determinations.
Electroblotting was performed by the method of Moorhead and Plaxton (1990), with the addition of […] o-vanadate to the transfer buffer when maintenance of phosphotyrosyl residues was desired. All immunoblots to be probed with the anti-(black mustard PEP-specific phosphatase) IgG (Duff et al, 1991a) were first pre-treated with sodium m-periodate according to Laine (1988) so as to oxidize antigenic oligosaccharide chains of endogenous tuber glycoproteins. Immunological detection of phosphotyrosylated tuber proteins using anti-(P-Tyr) IgG (Kamps and Sefton, 1988) was performed as referenced above except that the blocking buffer contained 5% (w/v) bovine serum albumin (fraction V) and 1% (w/v) ovalbumin instead of 3% (w/v) defatted milk powder.
Antigenic polypeptides were visualized using an alkaline-phosphatase-taggedsecondary antibody (Moorhead and Plaxton, 1990). Immunological specificities were confirmed by performing immunoblots in which rabbit preimmune serum was substituted for the affinity-purified IgGs. An LKB Ultroscan XL Enhanced Laser Densitometer was used to scan indicated immunoblots. Densitometric data were analysed using the LKB Gelscan XL software (version 2.1). Immunoreactive polypeptides were quantified in terms of their relative absorbance at 633 nm wavelength (A633).
Peeled and diced potato tuber tissue (5 g) was homogenized with a Polytron in 1 volume of 100 mM MES-NaOH (pH 5.8) containing 2 mM PMSF, 2 mM DTT, and 1 mM EDTA. The homogenate was centrifuged for 10 min at 13,000 g in an Eppendorf microfuge, and a 3-mL aliquot of the supernatant fluid was passed at 4° C. through a BioRad Econo-Pac 10DG desalting column that had been pre-equilibrated in homogenization buffer lacking PMSF. Aliquots (0.1 mL) of the desalted crude extract were incubated at 25° C. with and without 3 units of the purified potato phosphatase. Samples were removed at 0, 2 and 19 h and analyzed by immunoblotting using the anti-(P-Tyr) IgG as described supra. Laser densitometric scanning and immunoquantification of the blots was performed as described supra.

Series [13] concerns the target T1, potato phosphatase. The series is described as follows: Specific activity of purified potato tuber phosphatase. It is filed as biochemical. Also on record: mature chain from Thr30, C-terminus not determined. The protocol: As an initial step towards the isolation of plant phosphatase genes, the predominant phosphatase from potato tuber was purified to a final P-Tyr-hydrolyzing specific activity of 1917 units/mg (Gellatly et al, 1994). Only a single peak of activity was recovered following chromatography on columns of S-Sepharose, phosphocellulose and Phenyl Superose (Gellatly et al, 1994). One unit is defined as the μmoles of Pi produced per min at 25° C. The enzyme was purified 2289-fold to a final PEP-hydrolyzing specific activity of 618 units/mg and an overall recovery of 31% (Gellatly et al, 1994). With P-Tyr as substrate the final specific activity was increased to approximately 1900 units/mg (Table 1). This final specific activity was higher than any reported for a purified plant phosphatase (Duff et al, 1994).
(§2) Assays were initiated by the addition of enzyme preparation. One unit of phosphatase activity is defined as the quantity of enzyme that would catalyze the hydrolysis of 1 […] of substrate/min at 25° C.
as §1, with “enzyme. Hydrolysis was proportional to enzyme concentrations between 0.005 to 0.1 units/mL and remained linear with time for at least 15 min.” for “enzyme.”
Potato tuber phosphatase was purified by the method of Gellatly et al. (1994).

For series [14], the target named is T1, potato phosphatase. The series is described as follows: Effect of pH on phosphatase activity (assay A with PEP). It is filed as biochemical. Also noted: mature chain from Thr30, C-terminus not determined. The note with it: pH/activity profile. Here is the method:
Unless otherwise stated all kinetic studies of the potato phosphatase were performed with PEP using assay A (infra).
All subsequent kinetic studies were carried out at pH 5.8.
as §2

Molecule “potato tuber phosphatase (PTAP) (enzyme)” yielded a phosphoprotein phosphatase activity in series [1] of 220 units/mg.

`N[C@@H](Cc1ccc(OP(=O)(O)O)cc1)C(=O)O` [P-Tyr, o-phospho-L-tyrosine]: the Km in series [2] is more than 6000 µM.

`NC(COP(=O)(O)O)C(=O)O` (stereo not drawn) [P-Ser]: at potato phosphatase [3], the Vmax is on record as 389 units/mg. In addition, the “dephosphorylation by the minor 28-kD isoform” value in series [4] is on record as “inability to catalyze dephosphorylation”.

With “egg yolk storage phosphoprotein, phosvitin (from UniProt P02845)”, in series [5], the Relative Activity (%) of potato phosphatase with 0.25 mM PEP amounted to 19%.

B1: potato phosphatase (Solanum tuberosum) (protein)
chain: T1 sequence (Q6J5M8 with tags, fused parts or gaps V118I/E238V/S277N/V282G/E319A/A394T/S415A/T416I/D418E/I426Y/H428S/N437A)
Take B1: the Km in series [6] came out at 1520 µM; in series [7], 620 µM; in [8], 990 µM; in [9], 2160 µM; in series [10] it was 1100 µM. In addition, the Vmax in series [8] was 1917 units/mg; in series [9] it was 368 units/mg.

B2: PTAP: potato tuber acid phosphatase purified from Solanum tuberosum tubers; 57 and 55 kD subunits (protein)
chain: T1 sequence (Q6J5M8 with tags, fused parts or gaps V118I/E238V/S277N/V282G/E319A/A394T/S415A/T416I/D418E/I426Y/H428S/N437A) with Q189G
As to B2, the “loss of original activity” value in series [11] (incubated 4 min at 65° C) is listed as 0%; in series [11] (incubated 4 min at 70° C) it was 52%; in [11] (incubated 4 min at 75° C), 90%. The “Relative phosphotyrosyl content after incubation at 25° C” value is 66 ± 5 % initial value in [12] (20 kD polypeptide, 2h); 12 ± 3 % initial value in series [12] (20 kD polypeptide, 19h); 40 ± 3 % initial value in series [12] (34 kD polypeptide, 2h); 16 + 2 % initial value in series [12] (34 kD polypeptide, 19h); 69 ± 2 % initial value in [12] (85 kD polypeptide, 2h); 34 ± 2 % initial value in series [12] (85 kD polypeptide, 19h). Moreover, the “Relative phosphotyrosyl content after incubation at 25° C” value in [12] (102 kD polypeptide, 2h) is 60 ± 5 % initial value; in series [12] (102 kD polypeptide, 19h), 36 ± 3 % initial value; in [12] (228.5 kD polypeptide, 2h), 65 ± 2 % initial value; in [12] (228.5 kD polypeptide, 19h) it was 28 ± 3 % initial value. Further, in the series with potato phosphatase [13] (final purified preparation), the “o-phospho-L-tyrosine (P-Tyr) hydrolyzing specific activity” value is recorded as 1917 μmol Pi produced min^-1 mg^-1 of protein. The molecule further returned a PEP-hydrolyzing specific activity in the series with potato phosphatase [13] (final purified preparation, substrate PEP) of 618 units/mg. For the same molecule, the “p-nitrophenyl phosphate-hydrolyzing specific activity” value with potato phosphatase [13] (purified PTAP sample used for microprobe analysis) amounted to 618 units/mg. Besides, the “pH of maximum activity” value with potato phosphatase [14] is given as approximately 5.8. Also, the “pH of half-maximal activity” value in the series with potato phosphatase [14] (listed as potato phosphatase) is 4.9 and 6.7.

A word on the Km: it is the concentration of substrate that gives half-maximal velocity.
